# Results: the Immune Epitope Database (IEDB)
# Assays:
# Test in all cases: IEDB peptide-MHC binding, purified MHC/direct/fluorescence; filed as Kd, often an IC50 or EC50 that approximates it; ≥ and ≤ were set here for values at or beyond the usual limits of such assays
# [1] = biological target: HLA-A*24:03
# [2] = biological target: HLA-C*05:01
# [3] = biological target: HLA-A*01:01
# [4] = biological target: HLA-A*02:01
# [5] = biological target: HLA-A*03:01
# [6] = biological target: HLA-A*26:01
# [7] = biological target: HLA-A*30:01; details: source organism: Salmonella enterica subsp. enterica serovar Typhimurium
# [8] = biological target: HLA-A*31:01
# [9] = biological target: HLA-A*69:01
# [10] = biological target: HLA-B*07:02
# [11] = biological target: HLA-B*08:01
# [12] = biological target: HLA-B*15:01
# [13] = biological target: HLA-B*27:05; details: source organism: Salmonella enterica subsp. enterica serovar Typhimurium
# [14] = biological target: HLA-B*40:01
# [15] = biological target: HLA-B*44:02
# [16] = biological target: HLA-B*58:01
# [17] = biological target: HLA-B*73:01; details: source organism: Salmonella enterica subsp. enterica serovar Typhimurium str. LT2
# [18] = biological target: HLA-A*11:01; details: source organism: Salmonella enterica subsp. enterica serovar Typhimurium
# [19] = biological target: HLA-A*24:02; details: source organism: Salmonella enterica subsp. enterica serovar Typhimurium
# [20] = biological target: HLA-B*08:02; details: source organism: Salmonella enterica subsp. enterica serovar Typhimurium str. LT2
# [21] = biological target: HLA-A*02:03; details: source organism: Salmonella enterica subsp. enterica serovar Berta
# [22] = biological target: HLA-A*02:11; details: source organism: Salmonella enterica subsp. enterica serovar Berta
# [23] = biological target: HLA-A*02:12; details: source organism: Salmonella enterica subsp. enterica serovar Berta
# [24] = biological target: HLA-A*02:16; details: source organism: Salmonella enterica subsp. enterica serovar Berta
# [25] = biological target: HLA-A*02:19; details: source organism: Salmonella enterica subsp. enterica serovar Berta
# [26] = biological target: HLA-A*23:01; details: source organism: Salmonella enterica subsp. enterica serovar Berta
# [27] = biological target: HLA-A*29:02; details: source organism: Salmonella enterica subsp. enterica serovar Berta
# [28] = biological target: HLA-A*68:02; details: source organism: Salmonella enterica subsp. enterica serovar Berta
# [29] = biological target: HLA-B*15:17; details: source organism: Salmonella enterica subsp. enterica serovar Berta
# [30] = biological target: HLA-B*18:01; details: source organism: Salmonella enterica subsp. enterica serovar Berta
# [31] = biological target: HLA-B*27:03; details: source organism: Salmonella enterica subsp. enterica serovar Berta
# [32] = biological target: HLA-B*46:01; details: source organism: Salmonella enterica subsp. enterica serovar Berta
# [33] = biological target: HLA-B*51:01; details: source organism: Salmonella enterica subsp. enterica serovar Berta
# [34] = biological target: HLA-B*57:01
# [35] = biological target: HLA-C*12:03; details: source organism: Toxoplasma gondii ME49
# [36] = source organism: Salmonella enterica
# [37] = source organism: Salmonella enterica subsp. enterica serovar Typhimurium
# [38] = source organism: Salmonella enterica subsp. enterica serovar Typhimurium str. LT2
# [39] = source organism: Salmonella enterica subsp. enterica serovar Berta
# [40] = source organism: Toxoplasma gondii
sequence,measurement,setting,value
QYDVPMVSF,Kd,[1]; source organism: Mycobacterium tuberculosis,0.0184 µM
same,Kd,[2]; source organism: Mycobacterium tuberculosis H37Rv,≥ 20 µM
RKAGVNQAK,Kd,[3]; [36],≥ 20 µM
same,Kd,[4]; [36],≥ 20 µM
same,Kd,[5]; [37],≥ 20 µM
same,Kd,[6]; [36],≥ 20 µM
same,Kd,[7],12.9 µM
same,Kd,[8]; [36],≥ 20 µM
same,Kd,[9]; [36],≥ 20 µM
same,Kd,[10]; [36],≥ 20 µM
same,Kd,[11]; [36],≥ 20 µM
same,Kd,[12]; [36],≥ 20 µM
same,Kd,[13],0.224 µM
same,Kd,[14]; [36],≥ 20 µM
same,Kd,[15]; [36],≥ 20 µM
same,Kd,[16]; [36],≥ 20 µM
same,Kd,[17],≥ 20 µM
YSDIFNNVL,Kd,[3]; [37],0.075 µM
same,Kd,[5]; [37],≥ 20 µM
same,Kd,[18],≥ 20 µM
same,Kd,[19],≥ 20 µM
same,Kd,[6]; [38],≥ 20 µM
same,Kd,[8]; [37],≥ 20 µM
same,Kd,[10]; [37],≥ 20 µM
same,Kd,[11]; [38],≥ 20 µM
same,Kd,[20],≥ 20 µM
same,Kd,[12]; [37],≥ 20 µM
same,Kd,[13],≥ 20 µM
same,Kd,[14]; [37],0.396 µM
same,Kd,[15]; [37],≥ 20 µM
same,Kd,[16]; [37],≥ 20 µM
same,Kd,[2]; [38],0.005 µM
HQDDGQPRL,Kd,[4]; [39],≥ 20 µM
same,Kd,[21],≥ 20 µM
same,Kd,[22],≥ 20 µM
same,Kd,[23],≥ 20 µM
same,Kd,[24],≥ 20 µM
same,Kd,[25],≥ 20 µM
same,Kd,[5]; [39],≥ 20 µM
same,Kd,[26],≥ 20 µM
same,Kd,[1]; [39],≥ 20 µM
same,Kd,[6]; [39],≥ 20 µM
same,Kd,[27],≥ 20 µM
same,Kd,[28],≥ 20 µM
same,Kd,[9]; [39],≥ 20 µM
same,Kd,[12]; [39],≥ 20 µM
same,Kd,[29],≥ 20 µM
same,Kd,[30],≥ 20 µM
same,Kd,[31],≥ 20 µM
same,Kd,[32],≥ 20 µM
same,Kd,[33],≥ 20 µM
same,Kd,[34]; [39],≥ 20 µM
RATSHVPEF,Kd,[34]; [40],≥ 20 µM
same,Kd,[16]; [40],≥ 20 µM
same,Kd,[2]; source organism: Toxoplasma gondii ME49,≥ 20 µM
same,Kd,[35],0.148 µM
